These results are taken from the Human Domainome abundance scans (Beltran et al. 2025).

± gives the uncertainty stated by the source.

The labels stand for the following.
B1: Apoptosis-associated speck-like protein containing a CARD, residues 114 to 194; numbered along this chain, Q9ULZ3 (parent)
chain: FIDQHRAALIARVTNVEWLLDALYGKVLTDEQYQAVRAEPTNPSKMRKLFSFTPAWNWTCKDLLLQALRESQSYLVEDLER

In the data set the parent is B1. As to the kind of experiment: abundance fitness (aPCA) (normalised: wild type 0, dead -1); higher = more abundant; growth selection in yeast, the domain comes from the species named. To be noted: Homo sapiens.
Regarding FIDQHRAALIARVTNVEWLLDALYGKVLTDEQYQAVRAEPTNPSKMRKLFSFTPAWNWTCKDLLLQALRESQSYLVEYLER [D78Y], the abundance fitness was -0.218 ± 0.11. In the case of FIDQHRAALIARVTNVEWLLDALYGKVLTDEQYQAVRAEPTNPSKMRKLFSFTPAWSWTCKDLLLQALRESQSYLVEDLER [N57S] it was 0.018 ± 0.052; in that of FIDQHRALLIARVTNVEWLLDALYGKVLTDEQYQAVRAEPTNPSKMRKLFSFTPAWNWTCKDLLLQALRESQSYLVEDLER [A8L], -0.79 ± 0.13; in that of FIDQHRAALIARVTNVEWLLDALYGKVLTDEQYQAVRAEPTRPSKMRKLFSFTPAWNWTCKDLLLQALRESQSYLVEDLER [N42R], -0.562 ± 0.057.

As for FIDQHRAALIARVTNVEWLLDALYGKVLTDEQYQAVRAEPTNPSKMRKLFSFTPAWNWTCKDLLLQDLRESQSYLVEDLER [A67D], the abundance fitness was -1.02 ± 0.27. In the case of FIDQHRAALIARVRNVEWLLDALYGKVLTDEQYQAVRAEPTNPSKMRKLFSFTPAWNWTCKDLLLQALRESQSYLVEDLER [T14R], the abundance fitness was -0.209 ± 0.053. Take FIDQHRAALIARVTNVEWLLDALYGKVLTDEQYQAVRAEPTNPSKMRKLFSFTPAWNWTCKDLLLQALRNSQSYLVEDLER [E70N]: the abundance fitness is -0.322 ± 0.16.

Turning to FIDQHRSALIARVTNVEWLLDALYGKVLTDEQYQAVRAEPTNPSKMRKLFSFTPAWNWTCKDLLLQALRESQSYLVEDLER [A7S], the abundance fitness is -0.014 ± 0.054.

Turning to FIDQHRIALIARVTNVEWLLDALYGKVLTDEQYQAVRAEPTNPSKMRKLFSFTPAWNWTCKDLLLQALRESQSYLVEDLER [A7I], the abundance fitness was -0.638 ± 0.3. As to FIDQHRAALIARVTNVEWLLDALYGKVLTDEQYQAVGAEPTNPSKMRKLFSFTPAWNWTCKDLLLQALRESQSYLVEDLER [R37G], the abundance fitness is -0.479 ± 0.052. As for FIDQHRAALIARVTNVEWLLDALYGKVLTDEQYQAVRAEPTNPSKMRKLFSFTPAWNWTCKMLLLQALRESQSYLVEDLER [D62M], the abundance fitness was -0.295 ± 0.1. In the case of FIDQHRAALIARVTNVEWLLDALYGKVLTDEQYQAVRAEPTNPSKMRKLFSFTPAMNWTCKDLLLQALRESQSYLVEDLER [W56M] it was -0.108 ± 0.099; in that of GIDQHRAALIARVTNVEWLLDALYGKVLTDEQYQAVRAEPTNPSKMRKLFSFTPAWNWTCKDLLLQALRESQSYLVEDLER [F1G], -0.968 ± 0.25; in that of FIDQHRAALIARVTNVEWLLDALYGKVLTDEQYQANRAEPTNPSKMRKLFSFTPAWNWTCKDLLLQALRESQSYLVEDLER [V36N], -0.823 ± 0.46.

Turning to FIDQHRAALIARVTNVEWLLDALYGKVLTDEQYQAVRAEPTNPSKMRKLFSFTPAWNWTCKDCLLQALRESQSYLVEDLER [L63C], the abundance fitness was -0.44 ± 0.11. In the case of FIDQHRAALIARVTNVEWLLDALYGKVLTDEQYQAVRAEPTNPSKMRKLFSFTPAWNWTCKDWLLQALRESQSYLVEDLER [L63W] it was -0.543 ± 0.096; in that of FIDQHRAALIARVTNVEWLLDALYGKVLTDEQYQAVRAEPTNPSKMRFLFSFTPAWNWTCKDLLLQALRESQSYLVEDLER [K48F], -0.585 ± 0.12. In the case of FIDQHRAALIARVTNVEWLLDALYGKVLTDEQYQAVRAEPTNPSKMRKLFSFTPAWNWTCKDLLLEALRESQSYLVEDLER [Q66E] it was -0.148 ± 0.079. FIDQHRAALIARVTNVEWLLDALYGKVLTDEQYQAVRAEPTNPSKMRKLFSFTPAWNWTCKDLLLKALRESQSYLVEDLER [Q66K]: the abundance fitness is -0.059 ± 0.089. On to FIDQHRAALIARDTNVEWLLDALYGKVLTDEQYQAVRAEPTNPSKMRKLFSFTPAWNWTCKDLLLQALRESQSYLVEDLER [V13D], for which the abundance fitness is -0.688 ± 0.14.

For FIDQHRAALIARVTNVEWLLDALYGKVLTDEQYQAVRAEPTNPSKFRKLFSFTPAWNWTCKDLLLQALRESQSYLVEDLER [M46F], the abundance fitness is -0.807 ± 0.15. For FIDQHRAALIARVTNVEWLLDALYGKVLTDEQYQAVRAEPTNPSKMRKLHSFTPAWNWTCKDLLLQALRESQSYLVEDLER [F50H], the abundance fitness was -0.948 ± 0.31. With FIDQHRAALIARVTNVEWLLDALYGKVLTDEQYQAVRAEPTNPSKMRKLRSFTPAWNWTCKDLLLQALRESQSYLVEDLER [F50R], the abundance fitness is -0.81 ± 0.086. Turning to FIDQHRAALIARVTNVEWLLDALYYKVLTDEQYQAVRAEPTNPSKMRKLFSFTPAWNWTCKDLLLQALRESQSYLVEDLER [G25Y], the abundance fitness is -0.55 ± 0.3. For FIDQHRAALIARVTNVEWLLDALYTKVLTDEQYQAVRAEPTNPSKMRKLFSFTPAWNWTCKDLLLQALRESQSYLVEDLER [G25T], the abundance fitness was -0.81 ± 0.16. Consider FIDQHRAALIARVTNVEWLLDALYSKVLTDEQYQAVRAEPTNPSKMRKLFSFTPAWNWTCKDLLLQALRESQSYLVEDLER [G25S], for which the abundance fitness was -0.701 ± 0.084. As for FIDQHRAALIARVTNVEWLLDALYGFVLTDEQYQAVRAEPTNPSKMRKLFSFTPAWNWTCKDLLLQALRESQSYLVEDLER [K26F], the abundance fitness is -0.47 ± 0.3. Regarding FIDQHRAALIARVTNVEWLLDALYGKVLTDEQYQAVRAEPTNPSKMRKLFSFTPAWNATCKDLLLQALRESQSYLVEDLER [W58A], the abundance fitness was 0.357 ± 0.063. Consider FIDQHRAALIARVTNVEWLLDALYGKVLTDEQYQAVRAEPTNPSKMRKLFSFTPAWNHTCKDLLLQALRESQSYLVEDLER [W58H], for which the abundance fitness came to 0.289 ± 0.12. Consider FIDQHRAALIARVTNVEWLLDALYGKVLTDEQYQAVRAEPTNPSKMRKLFSFTPAWNWTLKDLLLQALRESQSYLVEDLER [C60L], for which the abundance fitness was -0.456 ± 0.059. FIDQHRAALIARVTNVEWLLDALYGKVLTDEQYQAVRAEPTNPSKMRKLFSFTPAWNWTWKDLLLQALRESQSYLVEDLER [C60W]: the abundance fitness was -0.238 ± 0.071. Regarding FIDQHRAALIARVTNVEWLLDALYGKVLTDEQYQAVRAEPTNPNKMRKLFSFTPAWNWTCKDLLLQALRESQSYLVEDLER [S44N], the abundance fitness is -0.511 ± 0.36.

As for FIDQHRAALIARVTNVEWLLDALSGKVLTDEQYQAVRAEPTNPSKMRKLFSFTPAWNWTCKDLLLQALRESQSYLVEDLER [Y24S], the abundance fitness is -0.319 ± 0.056. For FIDQHRAALIARVTNVEWLLDALYGKVLTDEQYQAVRAEPTNPSKMRKLFWFTPAWNWTCKDLLLQALRESQSYLVEDLER [S51W], the abundance fitness is -0.849 ± 0.15.
